{"source": "paper PMC8809985", "about": "“Preparation and characterization of a fully human monoclonal antibody specific for human tumor necrosis factor alpha” (Bioengineered, 2021)", "molecular_target": "recombinant human tumor necrosis factor alpha (Homo sapiens, UniProt P01375)", "sequence (P01375 77-233)": "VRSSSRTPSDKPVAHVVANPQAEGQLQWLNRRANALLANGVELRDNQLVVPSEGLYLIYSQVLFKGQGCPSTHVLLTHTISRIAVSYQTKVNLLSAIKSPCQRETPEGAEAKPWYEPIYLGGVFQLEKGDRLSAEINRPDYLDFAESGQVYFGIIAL", "test": "cell-based or functional assay", "note": "Where “and” joins values, the source holds several entries; their conditions need not be identical. Equal values may be shown once.", "data": [{"binder": "Haidalimumab (antibody, V domains shown) VH: EVQLVESGGGLVQPGGSLRLSCAASGFPFSNHWMNWVRQAPGKGLEWVGEIRSKSMNSATHYAESVKGRFTISRDDSKNSLYLQMNSLKTEDTAVYYCARNYYGSTYDHWGQGTLVTVSS VL: EIVLTQSPDFQSVTPKEKVTITCRASQFVGYSIHWYQQKPDQSPKLLIKYASESRSGVPSRFSGSGSGTDFTLTINSLEAEDAATYYCQQSHSWHFTFGQGTKLEIK", "values": [{"measurement": "EC50 of neutralisation of the cytotoxicity of rhTNFα (1 ng/mL, with actinomycin D 2.5 μg/mL) on L929 cells, MTT; one of three antibody batches", "value": "0.0195 µg/mL and 0.018 µg/mL and 0.0158 µg/mL"}]}]}
